Test results reported in US20210032351A1 (XDCEXPLORER SHANGHAI, published 2021).

How the values were obtained:
[1] = target: T1, human EGFRvIII-hFc protein (human, UniProt P00533 25-645); experiment: ELISA, EGFRvIII-hFc coated
T1 construct: extracellular domain; also called immunogen A; hFc-tagged EGFRvIII protein; not shown: human IgG Fc fragment (hFc) of the pCpC vector
Procedure: The purified humanized anti-EGFRvIII antibody obtained in example 12 is reacted with a human EGFRvIII-hFc protein.
The purified immunogen A (EGFRvIII-hFc) obtained in example 1 (for the preparation method, see step (I) in example 1) is diluted with PBS to a final concentration of 1.0 μg/mL, and then added to a 96-well ELISA plate at 100 μl/well. The plate is sealed with a plastic film and incubated at 4° C. overnight. The next day, the plate is washed twice with a plate washing solution [PBS+0.01% (v/v) Tween20], and added with a blocking solution [PBS+0.01% (v/v) Tween20+1% (w/w) BSA] for blocking 2 hours at room temperature. […] The plate is incubated for 2 hours at 37° C., and then washed 3 times with the plate washing solution [PBS+0.01% (v/v) Tween20]. The plate is added with an HRP (horseradish peroxidase) labeled secondary antibody (purchased from Sigma), incubated at 37° C. for 2 hours, and then washed 3 times with the plate washing solution [PBS+0.01% (v/v) Tween20]. The plate is added with 100 μl of TMB substrate/well, incubated for 30 minutes at room temperature, and then added with 100 μl of stopping solution (1.0N HCl)/well. A450 nm value is read using an ELISA plate reader (SpectraMax 384plus, purchased from Molecular Device).

[2] = target: T2, human EGFRvIII protein on the cell surface (human, UniProt P00533 25-1210); experiment: FACS on U87MG-EGFRvIII cells
T2 construct: whole, on cells; the cell line is named under assay; also called hEGFRvIII; U87MG-hEGFRvIII
Procedure: The preparation of U87MG-EGFRvIII required for FACS detection is as described in the preparation of the immunogen B in example 1. Normal human primary hepatocytes are purchased from BioreclamationIVT, and A431 tumor cells are purchased from ATCC. The recovered hepatocytes are directly used for FACS detection, and the recovered U87MG-EGFRvIII and A431 cells are subjected to an expanded culture to 90% confluence in a T-75 cell culture flask; the medium is sucked out, and the cells are washed twice with a HBSS buffer (Hanks Balanced Salt Solution) (purchased from Invitrogen), and then treated with an enzyme-free cell dissociation solution (Versene solution: purchased from Life Technology) and collected. The cells are washed twice with the HBSS buffer and are counted, and then the cells are diluted with the HBSS buffer to 2×10⁶ cells/ml, added with 1% goat serum blocking solution, with the percentage being the mass percentage, and incubated on ice for 30 minutes, and then centrifugally washed twice with the HBSS buffer. The collected cells are resuspended to 2×10⁶ cells/mL with an FACS buffer (HBSS+2% FBS, with the percentage being the volume percentage), added to a 96-well FACS reaction plate at 100 μL/well, then added with 100 μL/well of the purified EGFRvIII antibody (samples to be tested) obtained in example 12, and incubated on ice for 2 hours. The plate is centrifugally washed twice with the FACS buffer, added with 100 μL/well of a 1:1000 diluted fluorescence (Alexa 488) labeled secondary antibody (purchased from Invitrogen), and incubated on ice for 1 hour. The plate is centrifugally washed 3 times with the FACS buffer, added with 100 μL/well of a fixing solution [4% (v/v) paraformaldehyde] to resuspend the cells, and centrifugally washed twice with the FACS buffer after 10 minutes. The cells are resuspended in 100 μL of the FACS buffer, and the results are detected and analyzed by FACS (FACS Calibur, purchased from BD). Data analysis is performed by using the software (CellQuest) to obtain the mean fluorescence intensity (MFI) of the cells. Data is further analyzed by using the software (GraphPad Prism5) to perform data fitting and calculate EC50.

| EC50 [1] [nM] | Maximum OD450 value [1] [OD450] | EC50 [2] [nM] | Maximum mean fluorescence intensity [2] [MFI] | Binder |
| --- | --- | --- | --- | --- |
| 0.66 | 2.98 | 5.32 | 18000 | Humanized antibody h75G7C6-10 (antibody, human IgG1, V domains shown, also called VH-g1/VL-g1) VH: QVQLVQSGAEVKKPGASVKVSCKASGYTFTDYNMDWVRQAPGQGLEWIGDINPNNADTIYNQKFKGRVTLTVDTSTSTVYMELSSLRSEDTAVYYCARGDYDGYYPVYYAMDYWGQGTTVTVSS VL: ENVLTQSPATLSLSPGERATLSCRASSSVSSSYLHWYQQKPGQAPRLLIFSTSNLAAGIPARFSGSGSGTDYTLTISSLEPEDFAVYYCQQYSGYPLTFGGGTKVEIK |
| 0.01 | 3.71 | – | – | Humanized antibody h63A10A7-17 (antibody, human IgG1, V domains shown, also called VH-g4/VL-g4) VH: QVQLVQSGAEVKKPGASVKVSCKASGYTFISFTMHWVKQRPGQGLEWIGYINPNSGYTKYNQKFKDKATLTRDTSTSTVYMELSSLRSEDTAVYYCTRGGGRGFAYWGQGTLVTVSS VL: DILMTQSPSSLSASVGDRVTITCHASQDINSNIGWLQQKPGKSFKALIYHGTNLEDGVPSRFSGSGSGADYTLTISSLQPEDFATYYCVQYAQFPFTFGQGTKLEIK |
| 0.16 | 3.65 | 1.79 | 23700 | Humanized antibody h63A10A7-26 (antibody, human IgG1, V domains shown, also called VH-g4/VL-g8) VH: QVQLVQSGAEVKKPGASVKVSCKASGYTFISFTMHWVKQRPGQGLEWIGYINPNSGYTKYNQKFKDKATLTRDTSTSTVYMELSSLRSEDTAVYYCTRGGGRGFAYWGQGTLVTVSS VL: DILMTQSPSSLSASVGDRVTITCHASQDINSNIGWYQQKPGKSFKALIYHGTNLEDGVPSRFSGSGSGADFTLTISSLQPEDFATYYCVQYAQFPFTFGQGTKLEIK |
| 0.18 | 3.55 | 1.56 | 22600 | Humanized antibody h63A10A7-20 (antibody, human IgG1, V domains shown, also called VH-g7/VL-g4) VH: QVQLVQSGAEVKKPGASVKVSCKASGYTFISFTMHWVRQAPGQGLEWIGYINPNSGYTKYNQKFKDKATLTRDTSTSTVYMELSSLRSEDTAVYYCTRGGGRGFAYWGQGTLVTVSS VL: DILMTQSPSSLSASVGDRVTITCHASQDINSNIGWLQQKPGKSFKALIYHGTNLEDGVPSRFSGSGSGADYTLTISSLQPEDFATYYCVQYAQFPFTFGQGTKLEIK |
| 0.28 | 3.6 | 5.35 | 10200 | Humanized antibody h63A10A7-37 (antibody, human IgG1, V domains shown, also called VH-g6/VL-g3) VH: QVQLVQSGAEVKKPGASVKVSCKASGYTFISFTMHWVKQRPGQGLEWMGYINPNSGYTKYNQKFKDKATMTRDTSTSTVYMELSSLRSEDTAVYYCTRGGGRGFAYWGQGTLVTVSS VL: DIQMTQSPSSLSASVGDRVTITCHASQDINSNIGWLQQKPGKSFKALIYHGTNLEDGVPSRFSGSGSGADYTLTISSLQPEDFATYYCVQYAQFPFTFGQGTKLEIK |
| 0.17 | 3.61 | 1.32 | 24700 | Humanized antibody h63A10A7-25 (antibody, human IgG1, V domains shown, also called VH-g4/VL-g7) VH: QVQLVQSGAEVKKPGASVKVSCKASGYTFISFTMHWVKQRPGQGLEWIGYINPNSGYTKYNQKFKDKATLTRDTSTSTVYMELSSLRSEDTAVYYCTRGGGRGFAYWGQGTLVTVSS VL: DILMTQSPSSLSASVGDRVTITCHASQDINSNIGWYQQKPGKSFKALIYHGTNLEDGVPSRFSGSGSGADYTLTISSLQPEDFATYYCVQYAQFPFTFGQGTKLEIK |
| 0.33 | 3.47 | 4.62 | 20200 | Humanized antibody h63A10A7-23 (antibody, human IgG1, V domains shown, also called VH-g4/VL-g5) VH: QVQLVQSGAEVKKPGASVKVSCKASGYTFISFTMHWVKQRPGQGLEWIGYINPNSGYTKYNQKFKDKATLTRDTSTSTVYMELSSLRSEDTAVYYCTRGGGRGFAYWGQGTLVTVSS VL: DILMTQSPSSLSASVGDRVTITCHASQDINSNIGWLQQKPGKAPKALIYHGTNLEDGVPSRFSGSGSGADYTLTISSLQPEDFATYYCVQYAQFPFTFGQGTKLEIK |
| 0.22 | 3.7 | 3.03 | 10700 | Humanized antibody h63A10A7-38 (antibody, human IgG1, V domains shown, also called VH-g7/VL-g3) VH: QVQLVQSGAEVKKPGASVKVSCKASGYTFISFTMHWVRQAPGQGLEWIGYINPNSGYTKYNQKFKDKATLTRDTSTSTVYMELSSLRSEDTAVYYCTRGGGRGFAYWGQGTLVTVSS VL: DIQMTQSPSSLSASVGDRVTITCHASQDINSNIGWLQQKPGKSFKALIYHGTNLEDGVPSRFSGSGSGADYTLTISSLQPEDFATYYCVQYAQFPFTFGQGTKLEIK |
| 0.17 | 3.63 | 3.27 | 21100 | Humanized antibody h63A10A7-19 (antibody, human IgG1, V domains shown, also called VH-g6/VL-g4) VH: QVQLVQSGAEVKKPGASVKVSCKASGYTFISFTMHWVKQRPGQGLEWMGYINPNSGYTKYNQKFKDKATMTRDTSTSTVYMELSSLRSEDTAVYYCTRGGGRGFAYWGQGTLVTVSS VL: DILMTQSPSSLSASVGDRVTITCHASQDINSNIGWLQQKPGKSFKALIYHGTNLEDGVPSRFSGSGSGADYTLTISSLQPEDFATYYCVQYAQFPFTFGQGTKLEIK |
| 0.17 | 3.6 | 2.34 | 23500 | Humanized antibody h63A10A7-21 (antibody, human IgG1, V domains shown, also called VH-g8/VL-g4) VH: QVQLVQSGAEVKKPGASVKVSCKASGYTFISFTMHWVKQRPGQGLEWIGYINPNSGYTKYNQKFKDRVTLTRDTSTSTVYMELSSLRSEDTAVYYCTRGGGRGFAYWGQGTLVTVSS VL: DILMTQSPSSLSASVGDRVTITCHASQDINSNIGWLQQKPGKSFKALIYHGTNLEDGVPSRFSGSGSGADYTLTISSLQPEDFATYYCVQYAQFPFTFGQGTKLEIK |
| 0.15 | 3.57 | 1.58 | 23500 | Humanized antibody h63A10A7-22 (antibody, human IgG1, V domains shown, also called VH-g4/VL-g3) VH: QVQLVQSGAEVKKPGASVKVSCKASGYTFISFTMHWVKQRPGQGLEWIGYINPNSGYTKYNQKFKDKATLTRDTSTSTVYMELSSLRSEDTAVYYCTRGGGRGFAYWGQGTLVTVSS VL: DIQMTQSPSSLSASVGDRVTITCHASQDINSNIGWLQQKPGKSFKALIYHGTNLEDGVPSRFSGSGSGADYTLTISSLQPEDFATYYCVQYAQFPFTFGQGTKLEIK |
| 0.24 | 3.6 | 4.1 | 10700 | Humanized antibody h63A10A7-39 (antibody, human IgG1, V domains shown, also called VH-g8/VL-g3) VH: QVQLVQSGAEVKKPGASVKVSCKASGYTFISFTMHWVKQRPGQGLEWIGYINPNSGYTKYNQKFKDRVTLTRDTSTSTVYMELSSLRSEDTAVYYCTRGGGRGFAYWGQGTLVTVSS VL: DIQMTQSPSSLSASVGDRVTITCHASQDINSNIGWLQQKPGKSFKALIYHGTNLEDGVPSRFSGSGSGADYTLTISSLQPEDFATYYCVQYAQFPFTFGQGTKLEIK |
| 0.01 | 3.71 | – | – | Humanized antibody h63A10A7-18 (antibody, human IgG1, V domains shown, also called VH-g5/VL-g4) VH: QVQLVQSGAEVKKPGASVKVSCKASGYTFISFTMHWVKQRPGQGLEWIGYINPNSGYTKYNQKFKDKATLTADQSTSTAYMELSSLRSEDTAVYYCTRGGGRGFAYWGQGTLVTVSS VL: DILMTQSPSSLSASVGDRVTITCHASQDINSNIGWLQQKPGKSFKALIYHGTNLEDGVPSRFSGSGSGADYTLTISSLQPEDFATYYCVQYAQFPFTFGQGTKLEIK |
| 0.15 | 3.67 | 1.83 | 24200 | Humanized antibody h63A10A7-24 (antibody, human IgG1, V domains shown, also called VH-g4/VL-g6) VH: QVQLVQSGAEVKKPGASVKVSCKASGYTFISFTMHWVKQRPGQGLEWIGYINPNSGYTKYNQKFKDKATLTRDTSTSTVYMELSSLRSEDTAVYYCTRGGGRGFAYWGQGTLVTVSS VL: DILMTQSPSSLSASVGDRVTITCHASQDINSNIGWLQQKPGKSFKALIYHGTNLEDGVPSRFSGSGSGTDYTLTISSLQPEDFATYYCVQYAQFPFTFGQGTKLEIK |
